Test results from the supplement of paper PMC10266784.

B1: library; numbered along this chain (parent)
chain: MAAAAAAAAEQQSSNGPVKKSMREKAVERRSVNKEHNSNFKAGYIPIDEDRLHKTGLRGRKGNLAICVIILLFILAVINLIITLVIWAVIRIGPNGCDSMEFHESGLLRFKQVSDMGVIHPLYKSTVGGRRNENLVITGNNQPIVFQQGTTKLSVENNKTSITSDIGMQFFDPRTQNILFSTDYETHEFHLPSGVKSLNVQKASTERITSNATSDLNIKVDGRAIVRGNEGVFIMGKTIEFHMGGNMELKAENSIILNGSVMVSTTRLPSSSSGDQLGSGDWVRYKLCMCADGTLFKVQVTSQNMGCQISDNPCGNTH

Variants of: B1
Assay: SGCB cell-surface expression functional score (HA stain, bin4 vs bin1, normalised to synonymous) (log10 ratio); higher = more cell-surface SGCB (functional)
Experimental: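 Deep mutational scan of full-length human SGCB (YFP-SGCB-HA, NNN codon sublibraries A-F) delivered by lentivirus at low MOI into ADG-HEK293 cells stably expressing SGCA, SGCD and SGCG. YFP-positive cells were stained for surface HA on unpermeabilized cells and FACS-sorted into bins. The functional score is log10(frequency in high bin 4 / frequency in low bin 1), normalised per chunk so that synonymous variants have mean 0 and SD 0.5. Scores are the median over codons and over duplicate biological replicates; scores below -0.5 are called non-functional. Scale: negative means deleterious.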

Variant | SGCB cell-surface expression functional score (log10)
MAAAAAAAAEQQSSNGPVKKSMREKAVERRSVNKESNSNFKAGYIPIDEDRLHKTGLRGRKGNLAICVIILLFILAVINLIITLVIWAVIRIGPNGCDSMEFHESGLLRFKQVSDMGVIHPLYKSTVGGRRNENLVITGNNQPIVFQQGTTKLSVENNKTSITSDIGMQFFDPRTQNILFSTDYETHEFHLPSGVKSLNVQKASTERITSNATSDLNIKVDGRAIVRGNEGVFIMGKTIEFHMGGNMELKAENSIILNGSVMVSTTRLPSSSSGDQLGSGDWVRYKLCMCADGTLFKVQVTSQNMGCQISDNPCGNTH [H36S] | 0.21
MAAAAAAAAEQQSSNGPVKKSMREKAVERRSVNKEYNSNFKAGYIPIDEDRLHKTGLRGRKGNLAICVIILLFILAVINLIITLVIWAVIRIGPNGCDSMEFHESGLLRFKQVSDMGVIHPLYKSTVGGRRNENLVITGNNQPIVFQQGTTKLSVENNKTSITSDIGMQFFDPRTQNILFSTDYETHEFHLPSGVKSLNVQKASTERITSNATSDLNIKVDGRAIVRGNEGVFIMGKTIEFHMGGNMELKAENSIILNGSVMVSTTRLPSSSSGDQLGSGDWVRYKLCMCADGTLFKVQVTSQNMGCQISDNPCGNTH [H36Y] | 0.15
MAAAAAAAAEQQSSNGPVKKSMREKAVERRSVNKELNSNFKAGYIPIDEDRLHKTGLRGRKGNLAICVIILLFILAVINLIITLVIWAVIRIGPNGCDSMEFHESGLLRFKQVSDMGVIHPLYKSTVGGRRNENLVITGNNQPIVFQQGTTKLSVENNKTSITSDIGMQFFDPRTQNILFSTDYETHEFHLPSGVKSLNVQKASTERITSNATSDLNIKVDGRAIVRGNEGVFIMGKTIEFHMGGNMELKAENSIILNGSVMVSTTRLPSSSSGDQLGSGDWVRYKLCMCADGTLFKVQVTSQNMGCQISDNPCGNTH [H36L] | -0.04
MAAAAAAAAEQQSSNGPVKKSMREKAVERRSVNKEPNSNFKAGYIPIDEDRLHKTGLRGRKGNLAICVIILLFILAVINLIITLVIWAVIRIGPNGCDSMEFHESGLLRFKQVSDMGVIHPLYKSTVGGRRNENLVITGNNQPIVFQQGTTKLSVENNKTSITSDIGMQFFDPRTQNILFSTDYETHEFHLPSGVKSLNVQKASTERITSNATSDLNIKVDGRAIVRGNEGVFIMGKTIEFHMGGNMELKAENSIILNGSVMVSTTRLPSSSSGDQLGSGDWVRYKLCMCADGTLFKVQVTSQNMGCQISDNPCGNTH [H36P] | 0.32
MAAAAAAAAEQQSSNGPVKKSMREKAVERRSVNKEQNSNFKAGYIPIDEDRLHKTGLRGRKGNLAICVIILLFILAVINLIITLVIWAVIRIGPNGCDSMEFHESGLLRFKQVSDMGVIHPLYKSTVGGRRNENLVITGNNQPIVFQQGTTKLSVENNKTSITSDIGMQFFDPRTQNILFSTDYETHEFHLPSGVKSLNVQKASTERITSNATSDLNIKVDGRAIVRGNEGVFIMGKTIEFHMGGNMELKAENSIILNGSVMVSTTRLPSSSSGDQLGSGDWVRYKLCMCADGTLFKVQVTSQNMGCQISDNPCGNTH [H36Q] | 0.22
MAAAAAAAAEQQSSNGPVKKSMREKAVERRSVNKEWNSNFKAGYIPIDEDRLHKTGLRGRKGNLAICVIILLFILAVINLIITLVIWAVIRIGPNGCDSMEFHESGLLRFKQVSDMGVIHPLYKSTVGGRRNENLVITGNNQPIVFQQGTTKLSVENNKTSITSDIGMQFFDPRTQNILFSTDYETHEFHLPSGVKSLNVQKASTERITSNATSDLNIKVDGRAIVRGNEGVFIMGKTIEFHMGGNMELKAENSIILNGSVMVSTTRLPSSSSGDQLGSGDWVRYKLCMCADGTLFKVQVTSQNMGCQISDNPCGNTH [H36W] | -0.09
MAAAAAAAAEQQSSNGPVKKSMREKAVERRSVNKEMNSNFKAGYIPIDEDRLHKTGLRGRKGNLAICVIILLFILAVINLIITLVIWAVIRIGPNGCDSMEFHESGLLRFKQVSDMGVIHPLYKSTVGGRRNENLVITGNNQPIVFQQGTTKLSVENNKTSITSDIGMQFFDPRTQNILFSTDYETHEFHLPSGVKSLNVQKASTERITSNATSDLNIKVDGRAIVRGNEGVFIMGKTIEFHMGGNMELKAENSIILNGSVMVSTTRLPSSSSGDQLGSGDWVRYKLCMCADGTLFKVQVTSQNMGCQISDNPCGNTH [H36M] | -0.06
MAAAAAAAAEQQSSNGPVKKSMREKAVERRSVNKERNSNFKAGYIPIDEDRLHKTGLRGRKGNLAICVIILLFILAVINLIITLVIWAVIRIGPNGCDSMEFHESGLLRFKQVSDMGVIHPLYKSTVGGRRNENLVITGNNQPIVFQQGTTKLSVENNKTSITSDIGMQFFDPRTQNILFSTDYETHEFHLPSGVKSLNVQKASTERITSNATSDLNIKVDGRAIVRGNEGVFIMGKTIEFHMGGNMELKAENSIILNGSVMVSTTRLPSSSSGDQLGSGDWVRYKLCMCADGTLFKVQVTSQNMGCQISDNPCGNTH [H36R] | -0.04
MAAAAAAAAEQQSSNGPVKKSMREKAVERRSVNKEVNSNFKAGYIPIDEDRLHKTGLRGRKGNLAICVIILLFILAVINLIITLVIWAVIRIGPNGCDSMEFHESGLLRFKQVSDMGVIHPLYKSTVGGRRNENLVITGNNQPIVFQQGTTKLSVENNKTSITSDIGMQFFDPRTQNILFSTDYETHEFHLPSGVKSLNVQKASTERITSNATSDLNIKVDGRAIVRGNEGVFIMGKTIEFHMGGNMELKAENSIILNGSVMVSTTRLPSSSSGDQLGSGDWVRYKLCMCADGTLFKVQVTSQNMGCQISDNPCGNTH [H36V] | 0.28
MAAAAAAAAEQQSSNGPVKKSMREKAVERRSVNKENNSNFKAGYIPIDEDRLHKTGLRGRKGNLAICVIILLFILAVINLIITLVIWAVIRIGPNGCDSMEFHESGLLRFKQVSDMGVIHPLYKSTVGGRRNENLVITGNNQPIVFQQGTTKLSVENNKTSITSDIGMQFFDPRTQNILFSTDYETHEFHLPSGVKSLNVQKASTERITSNATSDLNIKVDGRAIVRGNEGVFIMGKTIEFHMGGNMELKAENSIILNGSVMVSTTRLPSSSSGDQLGSGDWVRYKLCMCADGTLFKVQVTSQNMGCQISDNPCGNTH [H36N] | 0.25
MAAAAAAAAEQQSSNGPVKKSMREKAVERRSVNKEKNSNFKAGYIPIDEDRLHKTGLRGRKGNLAICVIILLFILAVINLIITLVIWAVIRIGPNGCDSMEFHESGLLRFKQVSDMGVIHPLYKSTVGGRRNENLVITGNNQPIVFQQGTTKLSVENNKTSITSDIGMQFFDPRTQNILFSTDYETHEFHLPSGVKSLNVQKASTERITSNATSDLNIKVDGRAIVRGNEGVFIMGKTIEFHMGGNMELKAENSIILNGSVMVSTTRLPSSSSGDQLGSGDWVRYKLCMCADGTLFKVQVTSQNMGCQISDNPCGNTH [H36K] | 0.53
MAAAAAAAAEQQSSNGPVKKSMREKAVERRSVNKETNSNFKAGYIPIDEDRLHKTGLRGRKGNLAICVIILLFILAVINLIITLVIWAVIRIGPNGCDSMEFHESGLLRFKQVSDMGVIHPLYKSTVGGRRNENLVITGNNQPIVFQQGTTKLSVENNKTSITSDIGMQFFDPRTQNILFSTDYETHEFHLPSGVKSLNVQKASTERITSNATSDLNIKVDGRAIVRGNEGVFIMGKTIEFHMGGNMELKAENSIILNGSVMVSTTRLPSSSSGDQLGSGDWVRYKLCMCADGTLFKVQVTSQNMGCQISDNPCGNTH [H36T] | -0.13
MAAAAAAAAEQQSSNGPVKKSMREKAVERRSVNKEHASNFKAGYIPIDEDRLHKTGLRGRKGNLAICVIILLFILAVINLIITLVIWAVIRIGPNGCDSMEFHESGLLRFKQVSDMGVIHPLYKSTVGGRRNENLVITGNNQPIVFQQGTTKLSVENNKTSITSDIGMQFFDPRTQNILFSTDYETHEFHLPSGVKSLNVQKASTERITSNATSDLNIKVDGRAIVRGNEGVFIMGKTIEFHMGGNMELKAENSIILNGSVMVSTTRLPSSSSGDQLGSGDWVRYKLCMCADGTLFKVQVTSQNMGCQISDNPCGNTH [N37A] | 0.08
MAAAAAAAAEQQSSNGPVKKSMREKAVERRSVNKEHHSNFKAGYIPIDEDRLHKTGLRGRKGNLAICVIILLFILAVINLIITLVIWAVIRIGPNGCDSMEFHESGLLRFKQVSDMGVIHPLYKSTVGGRRNENLVITGNNQPIVFQQGTTKLSVENNKTSITSDIGMQFFDPRTQNILFSTDYETHEFHLPSGVKSLNVQKASTERITSNATSDLNIKVDGRAIVRGNEGVFIMGKTIEFHMGGNMELKAENSIILNGSVMVSTTRLPSSSSGDQLGSGDWVRYKLCMCADGTLFKVQVTSQNMGCQISDNPCGNTH [N37H] | 0.41
MAAAAAAAAEQQSSNGPVKKSMREKAVERRSVNKEHESNFKAGYIPIDEDRLHKTGLRGRKGNLAICVIILLFILAVINLIITLVIWAVIRIGPNGCDSMEFHESGLLRFKQVSDMGVIHPLYKSTVGGRRNENLVITGNNQPIVFQQGTTKLSVENNKTSITSDIGMQFFDPRTQNILFSTDYETHEFHLPSGVKSLNVQKASTERITSNATSDLNIKVDGRAIVRGNEGVFIMGKTIEFHMGGNMELKAENSIILNGSVMVSTTRLPSSSSGDQLGSGDWVRYKLCMCADGTLFKVQVTSQNMGCQISDNPCGNTH [N37E] | 0.3
MAAAAAAAAEQQSSNGPVKKSMREKAVERRSVNKEHDSNFKAGYIPIDEDRLHKTGLRGRKGNLAICVIILLFILAVINLIITLVIWAVIRIGPNGCDSMEFHESGLLRFKQVSDMGVIHPLYKSTVGGRRNENLVITGNNQPIVFQQGTTKLSVENNKTSITSDIGMQFFDPRTQNILFSTDYETHEFHLPSGVKSLNVQKASTERITSNATSDLNIKVDGRAIVRGNEGVFIMGKTIEFHMGGNMELKAENSIILNGSVMVSTTRLPSSSSGDQLGSGDWVRYKLCMCADGTLFKVQVTSQNMGCQISDNPCGNTH [N37D] | -0.35
MAAAAAAAAEQQSSNGPVKKSMREKAVERRSVNKEHGSNFKAGYIPIDEDRLHKTGLRGRKGNLAICVIILLFILAVINLIITLVIWAVIRIGPNGCDSMEFHESGLLRFKQVSDMGVIHPLYKSTVGGRRNENLVITGNNQPIVFQQGTTKLSVENNKTSITSDIGMQFFDPRTQNILFSTDYETHEFHLPSGVKSLNVQKASTERITSNATSDLNIKVDGRAIVRGNEGVFIMGKTIEFHMGGNMELKAENSIILNGSVMVSTTRLPSSSSGDQLGSGDWVRYKLCMCADGTLFKVQVTSQNMGCQISDNPCGNTH [N37G] | -0.15
MAAAAAAAAEQQSSNGPVKKSMREKAVERRSVNKEHCSNFKAGYIPIDEDRLHKTGLRGRKGNLAICVIILLFILAVINLIITLVIWAVIRIGPNGCDSMEFHESGLLRFKQVSDMGVIHPLYKSTVGGRRNENLVITGNNQPIVFQQGTTKLSVENNKTSITSDIGMQFFDPRTQNILFSTDYETHEFHLPSGVKSLNVQKASTERITSNATSDLNIKVDGRAIVRGNEGVFIMGKTIEFHMGGNMELKAENSIILNGSVMVSTTRLPSSSSGDQLGSGDWVRYKLCMCADGTLFKVQVTSQNMGCQISDNPCGNTH [N37C] | 0.35
MAAAAAAAAEQQSSNGPVKKSMREKAVERRSVNKEHFSNFKAGYIPIDEDRLHKTGLRGRKGNLAICVIILLFILAVINLIITLVIWAVIRIGPNGCDSMEFHESGLLRFKQVSDMGVIHPLYKSTVGGRRNENLVITGNNQPIVFQQGTTKLSVENNKTSITSDIGMQFFDPRTQNILFSTDYETHEFHLPSGVKSLNVQKASTERITSNATSDLNIKVDGRAIVRGNEGVFIMGKTIEFHMGGNMELKAENSIILNGSVMVSTTRLPSSSSGDQLGSGDWVRYKLCMCADGTLFKVQVTSQNMGCQISDNPCGNTH [N37F] | -0.14
